{
  "source": "patent US20240026028A1",
  "about": "(JIANGSU HENGRUI PHARMACEUTICALS, published 2024)",
  "binders": {"B1": {"name": "positive control antibody U3 (antibody, human IgG1, kappa, V domains shown)", "VH": "QVQLQQWGAGLLKPSETLSLTCAVYGGSFSGYYWSWIRQPPGKGLEWIGEINHSGSTNYNPSLKSRVTISVETSKNQFSLKLSSVTAADTAVYYCARDKWTWYFDLWGRGTLVTVSS", "VL": "not shown", "notes": "also called U1-59 (WO2007077028A2)"}, "B2": {"name": "fully human antibody molecule HER3-29 (antibody, human IgG1, kappa, V domains shown)", "VH": "QVQLVQSGGGLVQPGRSLRLSCAASGFTFDDYAMHWVRQAPGKGLEWVSGISWNSGSIGYADSVKGRFTISRDNAKNSLYLQMNSLRAEDTALYYCAKEGLPGLDYWGQGTLVTVSS", "VL": "DIQMTQSPSSLSASIGDRATITCRASQHVGTYLNWYQQKPGKTPKLLISGAANLQSGVPSRFSGSGSGTDFTLTISSLQPEDFATYYCQQSYNTPPFSFGQGTKVEIKR", "notes": "Human IgG1 / kappa; From a fully human natural phage library, expressed in HEK293 and Expi-CHO-S cells; also called antibody HER3-29"}},
  "key": {"[1]": {"target": "T1, HER3 protein (free, coated on the ELISA plate) (UniProt P21860 20-643, limits assumed)", "T1 construct": "also called free HER3 protein", "T1 sequence (P21860 20-643 limits assumed)": "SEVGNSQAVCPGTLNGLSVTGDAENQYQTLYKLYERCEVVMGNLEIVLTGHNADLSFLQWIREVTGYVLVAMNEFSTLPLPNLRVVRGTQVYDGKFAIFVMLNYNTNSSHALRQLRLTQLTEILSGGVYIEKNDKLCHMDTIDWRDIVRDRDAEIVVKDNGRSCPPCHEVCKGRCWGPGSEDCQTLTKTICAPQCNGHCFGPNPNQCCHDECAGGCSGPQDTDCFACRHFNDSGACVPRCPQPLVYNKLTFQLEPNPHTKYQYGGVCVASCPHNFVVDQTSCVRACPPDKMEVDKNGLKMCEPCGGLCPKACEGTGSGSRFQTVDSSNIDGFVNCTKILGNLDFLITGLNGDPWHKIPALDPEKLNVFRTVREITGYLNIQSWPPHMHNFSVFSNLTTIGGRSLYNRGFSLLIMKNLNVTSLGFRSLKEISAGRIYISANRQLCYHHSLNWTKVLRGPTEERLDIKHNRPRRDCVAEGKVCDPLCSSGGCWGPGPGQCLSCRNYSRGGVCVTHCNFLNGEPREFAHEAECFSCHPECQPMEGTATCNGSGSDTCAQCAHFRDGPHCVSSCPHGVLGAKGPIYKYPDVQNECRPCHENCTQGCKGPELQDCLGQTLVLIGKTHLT", "assay": "ELISA, HER3 protein coated on the plate, antibody titrated", "experimental": "HER3 protein was diluted to 1 μg/mL with pH 7.4 PBS buffer (Shanghai BasalMedia Technologies Co., LTD., B320) and added to a 96-well microplate at 100 μL/well. The plate was incubated at 4° C. overnight. After the liquid was discarded, 300 μL of 5% skim milk (BD, 232100) diluted with PBS was added to each well for blocking, and the plate was incubated at 37° C. for 2 h. After the blocking was completed, the blocking solution was discarded; after the plate was washed 3 times with PBST buffer (pH 7.4 PBS containing 0.1% tween-20), 100 μL of a gradient diluted antibody solution was added to each well, and the plate was incubated at 37° C. for 1 h. After the incubation was completed, the plate was washed 3 times with PBST buffer, and 100 μL of 1:8000 diluted Mouse Anti-HuMan IgG (H+L) (Jackson ImmunoResearch, 209-035-088) was added to each well. The plate was incubated at 37° C. for 1 h. After the plate was washed 3 times with PBST buffer, 100 μL of TMB chromogenic substrate (KPL, 5120-0077) was added to each well, and the plate was incubated at room temperature for 10-15 min. The reaction was terminated by adding 50 μL of 1 M H₂SO₄ to each well. The absorbance readings at 450 nm were taken on a microplate reader, and the binding curves of the antibodies to antigen were fitted with software, as shown in FIG. 1."}, "[2]": {"target": "T2, HER3 expressed by MCF7 cells (human, UniProt P21860 20-1342)", "T2 construct": "whole, on cells; Endogenous HER3 on MCF7 cells; also called cells expressing HER3 protein", "T2 sequence (P21860 20-1342)": "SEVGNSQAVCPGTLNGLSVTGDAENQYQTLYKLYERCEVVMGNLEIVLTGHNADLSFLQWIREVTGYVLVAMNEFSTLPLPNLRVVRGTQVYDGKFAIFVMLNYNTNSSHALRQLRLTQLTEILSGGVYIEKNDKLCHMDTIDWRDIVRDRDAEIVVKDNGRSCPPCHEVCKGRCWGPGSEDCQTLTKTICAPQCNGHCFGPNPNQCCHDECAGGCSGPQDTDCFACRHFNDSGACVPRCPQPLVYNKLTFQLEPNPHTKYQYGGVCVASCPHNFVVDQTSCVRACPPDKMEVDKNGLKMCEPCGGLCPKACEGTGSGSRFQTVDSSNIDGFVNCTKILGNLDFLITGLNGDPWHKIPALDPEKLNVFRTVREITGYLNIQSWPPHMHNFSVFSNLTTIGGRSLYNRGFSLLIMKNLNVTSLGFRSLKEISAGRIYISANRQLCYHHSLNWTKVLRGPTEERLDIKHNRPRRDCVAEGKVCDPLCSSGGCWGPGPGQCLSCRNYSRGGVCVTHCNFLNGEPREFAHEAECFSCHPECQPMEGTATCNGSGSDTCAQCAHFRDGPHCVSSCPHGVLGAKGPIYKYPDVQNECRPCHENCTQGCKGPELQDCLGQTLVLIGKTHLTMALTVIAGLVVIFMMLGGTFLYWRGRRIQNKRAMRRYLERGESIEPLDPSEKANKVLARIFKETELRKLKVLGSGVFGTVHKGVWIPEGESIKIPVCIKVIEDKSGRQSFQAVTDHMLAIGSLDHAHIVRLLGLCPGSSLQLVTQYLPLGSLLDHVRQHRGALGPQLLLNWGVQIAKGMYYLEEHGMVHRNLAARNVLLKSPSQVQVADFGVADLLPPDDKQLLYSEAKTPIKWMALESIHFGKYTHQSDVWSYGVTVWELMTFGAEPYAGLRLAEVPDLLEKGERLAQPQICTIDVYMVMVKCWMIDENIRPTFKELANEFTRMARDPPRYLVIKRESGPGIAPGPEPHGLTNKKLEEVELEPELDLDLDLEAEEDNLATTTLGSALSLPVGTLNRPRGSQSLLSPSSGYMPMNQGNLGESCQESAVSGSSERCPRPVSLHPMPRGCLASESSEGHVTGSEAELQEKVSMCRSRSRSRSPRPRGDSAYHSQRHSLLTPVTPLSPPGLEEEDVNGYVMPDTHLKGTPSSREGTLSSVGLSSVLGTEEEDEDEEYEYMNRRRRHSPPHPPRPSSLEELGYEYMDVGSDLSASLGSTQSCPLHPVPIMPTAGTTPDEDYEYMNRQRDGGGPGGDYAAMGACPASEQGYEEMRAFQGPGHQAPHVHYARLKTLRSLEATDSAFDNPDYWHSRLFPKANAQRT", "assay": "flow cytometry on MCF7 cells, geometric mean fluorescence", "experimental": "MCF7 cells (ATCC, HTB-22) were suspended in FACS buffer (2% fetal bovine serum (Gibco, 10099141) pH 7.4 PBS (Sigma, P4417-100TAB)) to give a 1×10⁶ cells/mL cell suspension, which was then added to a 96-well round-bottom plate at 100 μL/well. After centrifugation and removal of the supernatant, the test antibody that was diluted with FACS buffer to different concentrations was added at 50 μL/well. The plate was incubated in the dark in a 4° C. refrigerator for 1 h. The plate was washed 3 times with FACS buffer by centrifugation at 300 g, and Alexa Fluor 488 Goat anti-HuMan IgG (H+L) (invitrogen, A-11013) at working concentration was then added. The plate was incubated in the dark in a 4° C. refrigerator for 40 min. The plate was washed 3 times with FACS buffer by centrifugation at 300 g and tested on a BD FACSCantoII flow cytometer for geometric mean fluorescence intensity."}, "[3]": {"target": "HER3 recombinantly expressed on CHO-K1 cells (human, UniProt P21860 20-643)", "sequence (P21860 20-643)": "as the sequence (P21860 20-643 limits assumed) above", "assay": "cell-based or functional assay"}},
  "data": [
    {"binder": "B1", "values": [
      {"measurement": "EC50", "setting": "[1]", "value": 0.56, "unit": "nM"},
      {"measurement": "EC50", "setting": "[2]", "value": 0.249, "unit": "nM"},
      {"measurement": "IC50 (nM) (DT3C antibody endocytosis assay, cell killing)", "setting": "[3]", "value": 2.81, "unit": "nM"}
    ]},
    {"binder": "B2", "values": [
      {"measurement": "EC50", "setting": "[1]", "value": 0.14, "unit": "nM"},
      {"measurement": "EC50", "setting": "[2]", "value": 0.057, "unit": "nM"},
      {"measurement": "IC50 (nM) (DT3C antibody endocytosis assay, cell killing)", "setting": "[3]", "value": 0.51, "unit": "nM"}
    ]}
  ]
}
